Two molecules from paper PMC9482655 (2022) can be followed below.

The target of test [1] is JUNO ectodomain, biotin-labelled, sensor-bound (UniProt A6ND01 20-228, biotin on free lysine residues (EZ link sulfo-NHS-LC-biotinylation kit, 1:1 protein to biotin ratio)). The test can be described thus: BLI. In general terms: Biolayer interferometry detects binding as a change in optical thickness at a sensor tip.
In test [2] the target is IZUMO1 ectodomain, biotin-labelled, sensor-bound (human, UniProt Q8IYV9 22-292, biotin on free lysine residues (EZ link sulfo-NHS-LC-biotinylation kit, 1:1 protein to biotin ratio)). The experiment in a line: BLI.

B1: IZUMO1 ectodomain (BLI analyte) (domain or fragment)
chain: CVICDPSVVLALKSLEKDYLPGHLDAKHHKAMMERVENAVKDFQELSLNEDAYMGVVDEATLQKGSWSLLKDLKRITDSDVKGDLFVKELFWMLHLQKETFATYVARFQKEAYCPNKCGVMLQTLIWCKNCKKEVHACRKSYDCGERNVEVPQMEDMILDCELNWHQASEGLTDYSFYRVWGNNTETLVSKGKEATLTKPMVGPEDAGSYRCELGSVNSSPATIINFHVTVLPKMIKEEKPSPNIVTPGEATTESSISLQPLQPEKMLASR
The Kd is the free concentration of one partner at which half of the binding sites on the other are occupied at equilibrium, for simple one-to-one binding. B1: the Kd in test [1] worked out at 36.8 nM.

B2: JUNO ectodomain (BLI analyte; target protein of the pull-down) (domain or fragment)
chain: GDELLNICMNAKHHKRVPSPEDKLYEECIPWKDNACCTLTTSWEAHLDVSPLYNFSLFHCGLLMPGCRKHFIQAICFYECSPNLGPWIQPVGSLGWEVAPSGQGERVVNVPLCQEDCEEWWEDCRMSYTCKSNWRGGWDWSQGKNRCPKGAQCLPFSHYFPTPADLCEKTWSNSFKASPERRNSGRCLQKWFEPAQGNPNVAVARLFAS
Regarding B2, the Kd in test [2] came out at 14.2 nM.
